Measured values taken from patent US20250011468A1 (Novo Nordisk, published 2025).

B1: mAb4-0004 (monovalent one-armed variant of mAb0-1998) (antibody, V domains shown)
VH: EVQLVESGGGLVQPGRSLKLSCAASGFTFDDYAMHWVRQVPGKGLEWVSGISWNGDNIGYVDSVKGRFTISRDNAKNSLYLQLNSLRAEDTALYYCVKSYGSGSFYNAFDSWGQGTLVTVSS
VL: DIQMTQSPSTLSASAGDRVTITCRASQSISSWLAWYQQKPGKAPKFLIYKASSLESGVPSRFSGSGSGTEFSLTISSLQPDDFATYYCLEYSSYIRTFGQGTKVEIK
B2: mAb3-3279 (monovalent one-armed variant of mAb1-1307) (antibody, V domains shown)
VH: EVQLVESGGGLVQPGRSLRLSCAASGFTFGDYAMHWVRQAPGKGLEWVSGISWNSGSIGYADSVKGRFTISRDNAKNSLYLQMNSLRAEDTALYYCAKGQYDEDAGMDVWGQGTTVTVSS
VL: DIQMTQSPSSLSASVGDRVTITCRASQSISSYLNWYQQKPGKAPKLLIYAASSLQSGVPSRFSGSGSGTDFTLTISSLQPEDFATYYCQQGYPTWTFGGGTKVEIK
B3: mAb4-0673 (monovalent one-armed variant of mAb0-1886) (antibody, V domains shown)
VH: EVQLVQSGAEVKKPGESLRISCKGSGYSFTSYWIGWVRQMPGKGLEWMGMIDPSDSYTDYGPSFRGHVTISADKSISTAYLQWSSLKASDTAMYYCARVRIMEGAFDIWGQGTMVTVSS
VL: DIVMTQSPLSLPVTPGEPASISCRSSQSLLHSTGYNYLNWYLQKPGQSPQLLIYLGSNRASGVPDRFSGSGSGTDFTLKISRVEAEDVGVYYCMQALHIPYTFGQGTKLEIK

Columns and labels:
[1] = target: FIX K341E with C-terminal His-tag (human, UniProt P00740 47-461); test: SPR (Biacore T200), His-tagged FIX variant captured by anti-His antibody, one-armed antibody as analyte; % of wild-type binding
Protocol: (§1) SPR analyses were carried out on Biacore 4000 or Biacore T200 instruments (Biacore AB, Uppsala, Sweden). For the experiments on the T200 instrument the following conditions were applied: measurements were conducted at a temperature of 25° C. Anti-His antibody at 25 μg/ml (R&D Systems, catalogue #MAB050) was immobilized on a CM5 sensor chip using standard amine coupling chemistry. […] at 25 nM were injected at a flow rate of 10 μl/min for 1 min and were captured via their His-tag by the immobilized anti-His antibody. Subsequently, 200 nM (with 4-fold serial dilutions), 1600 nM (with 3-fold serial dilutions), and 2000 nM (with 3-fold serial dilution) of mAb4-0004, mAb3-3279 and mAb4-0673, respectively, were injected at a flow rate of 50 μl/min for 5 min to allow for binding to captured FIX variant followed by a 10 min buffer injection allowing for dissociation of the monovalent anti-FIX antibodies. The running buffer used was 20 mM Tris, 150 mM NaCl, 5 mM CaCl₂, 0.05% Tween-20, 1 mg/ml BSA, pH 7.4. This was also used for dilution of anti-FIX antibody and FIX samples. Regeneration of the chip was achieved using 10 mM Glycine pH 2.0. Binding data were analysed according to a 1:1 model using BiaEvaluation 4.1 supplied by the manufacturer (Biacore AB, Uppsala, Sweden). A similar experimental set-up was used for the Biacore 4000 instrument.
(§2) A more detailed binding analysis was conducted for residues defined as epitope residues (see example 6) using the Biacore T200 instrument.

[2] = target: FIX L337A with C-terminal His-tag (human, UniProt P00740 47-461); test: as above
Protocol: as §1, §2

[3] = target: FIX D332A with C-terminal His-tag (human, UniProt P00740 47-461); test: as above
Protocol: as §1, §2

[4] = target: FIX R338A with C-terminal His-tag (human, UniProt P00740 47-461); test: as above
Protocol: as §1, §2

[5] = target: FIX T335A with C-terminal His-tag (human, UniProt P00740 47-461); test: as above
Protocol: as §1, §2

[6] = target: FIX T343I with C-terminal His-tag (human, UniProt P00740 47-461); test: as above
Protocol: as §1, §2

[7] = target: FIX A334L with C-terminal His-tag (human, UniProt P00740 47-461); test: as above
Protocol: as §1, §2

[8] = target: FIX R333A with C-terminal His-tag (human, UniProt P00740 47-461); test: as above
Protocol: as §1, §2

[9] = target: FIX K301A with C-terminal His-tag (human, UniProt P00740 47-461); test: as above
Protocol: as §1, §2

[10] = target: FIX T343A with C-terminal His-tag (human, UniProt P00740 47-461); test: as above
Protocol: as §1, §2

[11] = target: FIX S339L with C-terminal His-tag (human, UniProt P00740 47-461); test: as above
Protocol: as §1, §2

[12] = target: FIX D332S with C-terminal His-tag (human, UniProt P00740 47-461); test: as above
Protocol: as §1, §2

[13] = target: FIX K341A with C-terminal His-tag (human, UniProt P00740 47-461); test: as above
Protocol: as §1, §2

[14] = target: FIX N346A with C-terminal His-tag (human, UniProt P00740 47-461); test: as above
Protocol: as §1, §2

[15] = target: FIX T340A with C-terminal His-tag (human, UniProt P00740 47-461); test: as above
Protocol: as §1, §2

[16] = target: T1, wild-type FIX with C-terminal His-tag (human, UniProt P00740 47-461); test: SPR (Biacore T200), His-tagged FIX captured by anti-His antibody, one-armed antibody as analyte; % of wild-type binding
T1 construct: Secreted mature FIX from expi293F cells; also called WT
Protocol: as §1

[17] = target: FIX K293A with C-terminal His-tag (human, UniProt P00740 47-461); test: SPR (Biacore T200), His-tagged FIX variant captured by anti-His antibody, one-armed antibody as analyte; % of wild-type binding
Protocol: as §1, §2

[18] = target: FIX E410Q with C-terminal His-tag (human, UniProt P00740 47-461); test: as above
Protocol: as §1, §2

[19] = target: FIX H257A with C-terminal His-tag (human, UniProt P00740 47-461); test: as above
Protocol: as §1, §2

[20] = target: FIX Y404F with C-terminal His-tag (human, UniProt P00740 47-461); test: as above
Protocol: as §1, §2

[21] = target: FIX H256A with C-terminal His-tag (human, UniProt P00740 47-461); test: as above
Protocol: as §1, §2

[22] = target: FIX K411A with C-terminal His-tag (human, UniProt P00740 47-461); test: as above
Protocol: as §1, §2

[23] = target: FIX N406A with C-terminal His-tag (human, UniProt P00740 47-461); test: as above
Protocol: as §1, §2

[24] = target: FIX N258A with C-terminal His-tag (human, UniProt P00740 47-461); test: as above
Protocol: as §1, §2

[25] = target: FIX R403A with C-terminal His-tag (human, UniProt P00740 47-461); test: as above
Protocol: as §1, §2

[26] = target: FIX N346Q with C-terminal His-tag (human, UniProt P00740 47-461); test: as above
Protocol: as §1, §2

T1 sequence (P00740 other isoform, or with tags, fused parts or gaps limits assumed): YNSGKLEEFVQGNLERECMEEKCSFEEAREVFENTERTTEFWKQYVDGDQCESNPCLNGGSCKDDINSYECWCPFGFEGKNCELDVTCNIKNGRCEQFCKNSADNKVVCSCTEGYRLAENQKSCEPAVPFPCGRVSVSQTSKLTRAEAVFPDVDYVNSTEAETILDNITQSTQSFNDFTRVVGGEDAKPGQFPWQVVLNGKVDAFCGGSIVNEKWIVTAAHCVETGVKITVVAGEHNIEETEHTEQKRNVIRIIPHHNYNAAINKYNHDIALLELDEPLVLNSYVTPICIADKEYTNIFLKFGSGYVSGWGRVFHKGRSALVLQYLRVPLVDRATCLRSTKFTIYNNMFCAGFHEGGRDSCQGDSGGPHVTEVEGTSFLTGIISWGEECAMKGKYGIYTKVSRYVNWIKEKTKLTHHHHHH
Sequence of FIX T340A with C-terminal His-tag (P00740 other isoform, or with tags, fused parts or gaps T340A T340A limits assumed): as the sequence (P00740 other isoform, or with tags, fused parts or gaps limits assumed) above, with T340A counted along it
Sequence of FIX A334L with C-terminal His-tag (P00740 other isoform, or with tags, fused parts or gaps A334L A334L limits assumed): as the sequence (P00740 other isoform, or with tags, fused parts or gaps limits assumed) above, with A334L counted along it
Sequence of FIX L337A with C-terminal His-tag (P00740 other isoform, or with tags, fused parts or gaps L337A L337A limits assumed): as the sequence (P00740 other isoform, or with tags, fused parts or gaps limits assumed) above, with L337A counted along it
Sequence of FIX R338A with C-terminal His-tag (P00740 other isoform, or with tags, fused parts or gaps R338A R338A limits assumed): as the sequence (P00740 other isoform, or with tags, fused parts or gaps limits assumed) above, with R338A counted along it
Sequence of FIX T335A with C-terminal His-tag (P00740 other isoform, or with tags, fused parts or gaps T335A T335A limits assumed): as the sequence (P00740 other isoform, or with tags, fused parts or gaps limits assumed) above, with T335A counted along it
Sequence of FIX R333A with C-terminal His-tag (P00740 other isoform, or with tags, fused parts or gaps R333A R333A limits assumed): as the sequence (P00740 other isoform, or with tags, fused parts or gaps limits assumed) above, with R333A counted along it
Sequence of FIX K341A with C-terminal His-tag (P00740 other isoform, or with tags, fused parts or gaps K341A K341A limits assumed): as the sequence (P00740 other isoform, or with tags, fused parts or gaps limits assumed) above, with K341A counted along it
Sequence of FIX D332A with C-terminal His-tag (P00740 other isoform, or with tags, fused parts or gaps D332A D332A limits assumed): as the sequence (P00740 other isoform, or with tags, fused parts or gaps limits assumed) above, with D332A counted along it
Sequence of FIX T343I with C-terminal His-tag (P00740 other isoform, or with tags, fused parts or gaps T343I T343I limits assumed): as the sequence (P00740 other isoform, or with tags, fused parts or gaps limits assumed) above, with T343I counted along it
Sequence of FIX K341E with C-terminal His-tag (P00740 other isoform, or with tags, fused parts or gaps K341E K341E limits assumed): as the sequence (P00740 other isoform, or with tags, fused parts or gaps limits assumed) above, with K341E counted along it

Binding (%) relative to wild-type [1]	Binding (%) relative to wild-type [2]	Binding (%) relative to wild-type [3]	Binding (%) relative to wild-type [4]	Binding (%) relative to wild-type [5]	Binding (%) relative to wild-type [6]	Binding (%) relative to wild-type [7]	Binding (%) relative to wild-type [8]	Binding (%) relative to wild-type [9]	Binding (%) relative to wild-type [10]	Binding (%) relative to wild-type [11]	Binding (%) relative to wild-type [13]	Binding (%) relative to wild-type [14]	Binding (%) relative to wild-type [15]	Binding (%) relative to wild-type [16]	other results	Binder
2%	52%	50%	2%	62%	48%	51%	66%	66%	38%	66%	21%	73%	37%	100%	Binding (%) relative to wild-type [12]: 66%	B1
														100%	Binding (%) relative to wild-type [17]: 23%; Binding (%) relative to wild-type [18]: 39%; Binding (%) relative to wild-type [19]: 8%; Binding (%) relative to wild-type [20]: 76%; Binding (%) relative to wild-type [21]: 32%; Binding (%) relative to wild-type [22]: 71%; Binding (%) relative to wild-type [23]: 12%; Binding (%) relative to wild-type [24]: 82%; Binding (%) relative to wild-type [25]: 94%	B2
53%	7%	17%	3%	71%	90%	44%	4%	93%	63%	73%	96%	51%	67%	100%	Binding (%) relative to wild-type [26]: 94%	B3
